Data as given in patent US20260209386A1 (MYTHIC THERAPEUTICS, published 2026).

T1: Human PTK7/CCK4 Protein, His Tag, Acro Biosystems PT7-H52H3 (human, UniProt Q13308 31-704)
T1 construct: bought protein; also called Human PTK7 Protein, His Tag, Acro Biosystems; not shown: His tag
T1 sequence: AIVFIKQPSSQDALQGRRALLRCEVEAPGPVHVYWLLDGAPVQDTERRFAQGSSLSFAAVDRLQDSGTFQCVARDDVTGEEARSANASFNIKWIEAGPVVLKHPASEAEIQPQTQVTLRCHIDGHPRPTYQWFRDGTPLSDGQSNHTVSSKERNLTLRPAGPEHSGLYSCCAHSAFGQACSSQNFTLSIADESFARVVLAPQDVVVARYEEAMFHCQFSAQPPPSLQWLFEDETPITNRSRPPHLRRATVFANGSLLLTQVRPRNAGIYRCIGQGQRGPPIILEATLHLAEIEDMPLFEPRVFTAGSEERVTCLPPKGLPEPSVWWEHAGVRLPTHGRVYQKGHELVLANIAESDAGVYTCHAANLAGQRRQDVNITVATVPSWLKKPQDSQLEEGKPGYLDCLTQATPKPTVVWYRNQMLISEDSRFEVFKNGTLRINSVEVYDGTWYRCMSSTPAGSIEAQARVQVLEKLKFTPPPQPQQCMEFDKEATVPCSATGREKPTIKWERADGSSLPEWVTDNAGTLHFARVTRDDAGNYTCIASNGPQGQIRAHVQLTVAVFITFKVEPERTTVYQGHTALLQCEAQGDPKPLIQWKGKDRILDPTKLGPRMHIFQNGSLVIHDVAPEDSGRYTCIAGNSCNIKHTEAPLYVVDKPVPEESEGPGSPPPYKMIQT

B1: MYT10888 (antibody, V domains shown)
VH: EVQLVESGGGLVQPGGSLRLSCTASGFSHSNYVMNWVRQAPGKGLEWVGIIDSSGSTYYASWAKGRFTISRDTSKNTVYLQMNSLRAEDTAVYFCARGLYLWGQGTLVTVSS
VL: EIVMTQSPSTLSASVGDRVIITCQSSQSVYNNNLLAWYQQKPGKAPKLLIYYTSNLASGVPSRFSGSGSGAEFTLTISSLQPDDFATYYCQGGYNGNIYAFGQGTKLTVL
notes: IgG
B2: MYT10891 (antibody, V domains shown)
VH: EVQLVESGGGLVQPGGSLRLSCTASGFSLSNHVMNWVRQAPGKGLEWVGIIDSSGSTYYASWAKGRFTISRDTSKNTVYLQMNSLRAEDTAVYFCARGLYLWGQGTLVTVSS
VL: EIVMTQSPSTLSASVGDRVIITCQSSQSVYNNNLLAWYQQKPGKAPKLLIYYTSNLASGVPSRFSGSGSGAEFTLTISSLQPDDFATYYCQGGYNGNIYAFGQGTKLTVL
notes: IgG
B3: MYT10935 (antibody, V domains shown)
VH: EVQLVESGGGLVQPGGSLRLSCTASGFSLSNYVMNWVRQAPGKGLEWVGIIDSSGSTYYASWAKGRFTISRDTSKNTVYLQMNSLRAEDTAVYFCARGLYLWGQGTLVTVSS
VL: EIVMTQSPSTLSASVGDRVIITCQSSQSVYNNNLLAWYQQKPGKAPKLLIYYTSHLASGVPSRFSGSGSGAEFTLTISSLQPDDFATYYCQGGYNGNIYAFGQGTKLTVL
notes: IgG
B4: MYT10916 (antibody, V domains shown)
VH: EVQLVESGGGLVQPGGSLRLSCTASGFSLSNYVMNWVRQAPGKGLEWVGIIDSSGSTYYASWAKGRFTISRDTSKNTVYLQMNSLRAEDTAVYFCARGLYHWGQGTLVTVSS
VL: EIVMTQSPSTLSASVGDRVIITCQSSQSVYNNNLLAWYQQKPGKAPKLLIYYTSNLASGVPSRFSGSGSGAEFTLTISSLQPDDFATYYCQGGYNGNIYAFGQGTKLTVL
notes: IgG
B5: MYT10903 (antibody, V domains shown)
VH: EVQLVESGGGLVQPGGSLRLSCTASGFSLSNYVMNWVRQAPGKGLEWVGIIDSSGSTHYASWAKGRFTISRDTSKNTVYLQMNSLRAEDTAVYFCARGLYLWGQGTLVTVSS
VL: EIVMTQSPSTLSASVGDRVIITCQSSQSVYNNNLLAWYQQKPGKAPKLLIYYTSNLASGVPSRFSGSGSGAEFTLTISSLQPDDFATYYCQGGYNGNIYAFGQGTKLTVL
notes: IgG
B6: MYT10936 (antibody, V domains shown)
VH: EVQLVESGGGLVQPGGSLRLSCTASGFSLSNYVMNWVRQAPGKGLEWVGIIDSSGSTYYASWAKGRFTISRDTSKNTVYLQMNSLRAEDTAVYFCARGLYLWGQGTLVTVSS
VL: EIVMTQSPSTLSASVGDRVIITCQSSQSVYNNNLLAWYQQKPGKAPKLLIYYTSNHASGVPSRFSGSGSGAEFTLTISSLQPDDFATYYCQGGYNGNIYAFGQGTKLTVL
notes: IgG
B7: MYT10889 (antibody, V domains shown)
VH: EVQLVESGGGLVQPGGSLRLSCTASGFSLHNYVMNWVRQAPGKGLEWVGIIDSSGSTYYASWAKGRFTISRDTSKNTVYLQMNSLRAEDTAVYFCARGLYLWGQGTLVTVSS
VL: EIVMTQSPSTLSASVGDRVIITCQSSQSVYNNNLLAWYQQKPGKAPKLLIYYTSNLASGVPSRFSGSGSGAEFTLTISSLQPDDFATYYCQGGYNGNIYAFGQGTKLTVL
notes: IgG
B8: MYT10927 (antibody, V domains shown)
VH: EVQLVESGGGLVQPGGSLRLSCTASGFSLSNYVMNWVRQAPGKGLEWVGIIDSSGSTYYASWAKGRFTISRDTSKNTVYLQMNSLRAEDTAVYFCARGLYLWGQGTLVTVSS
VL: EIVMTQSPSTLSASVGDRVIITCQSSQSVYNHNLLAWYQQKPGKAPKLLIYYTSNLASGVPSRFSGSGSGAEFTLTISSLQPDDFATYYCQGGYNGNIYAFGQGTKLTVL
notes: IgG
B9: MYT10905 (antibody, V domains shown)
VH: EVQLVESGGGLVQPGGSLRLSCTASGFSLSNYVMNWVRQAPGKGLEWVGIIDSSGSTYYHSWAKGRFTISRDTSKNTVYLQMNSLRAEDTAVYFCARGLYLWGQGTLVTVSS
VL: EIVMTQSPSTLSASVGDRVIITCQSSQSVYNNNLLAWYQQKPGKAPKLLIYYTSNLASGVPSRFSGSGSGAEFTLTISSLQPDDFATYYCQGGYNGNIYAFGQGTKLTVL
notes: IgG
B10: MYT10896 (antibody, V domains shown)
VH: EVQLVESGGGLVQPGGSLRLSCTASGFSLSNYVMNWVRQAPGKGLEWVGIHDSSGSTYYASWAKGRFTISRDTSKNTVYLQMNSLRAEDTAVYFCARGLYLWGQGTLVTVSS
VL: EIVMTQSPSTLSASVGDRVIITCQSSQSVYNNNLLAWYQQKPGKAPKLLIYYTSNLASGVPSRFSGSGSGAEFTLTISSLQPDDFATYYCQGGYNGNIYAFGQGTKLTVL
notes: IgG
B11: MYT10920 (antibody, V domains shown)
VH: EVQLVESGGGLVQPGGSLRLSCTASGFSLSNYVMNWVRQAPGKGLEWVGIIDSSGSTYYASWAKGRFTISRDTSKNTVYLQMNSLRAEDTAVYFCARGLYLWGQGTLVTVSS
VL: EIVMTQSPSTLSASVGDRVIITCQHSQSVYNNNLLAWYQQKPGKAPKLLIYYTSNLASGVPSRFSGSGSGAEFTLTISSLQPDDFATYYCQGGYNGNIYAFGQGTKLTVL
notes: IgG
B12: MYT10898 (antibody, V domains shown)
VH: EVQLVESGGGLVQPGGSLRLSCTASGFSLSNYVMNWVRQAPGKGLEWVGIIDHSGSTYYASWAKGRFTISRDTSKNTVYLQMNSLRAEDTAVYFCARGLYLWGQGTLVTVSS
VL: EIVMTQSPSTLSASVGDRVIITCQSSQSVYNNNLLAWYQQKPGKAPKLLIYYTSNLASGVPSRFSGSGSGAEFTLTISSLQPDDFATYYCQGGYNGNIYAFGQGTKLTVL
notes: IgG
B13: MYT10930 (antibody, V domains shown)
VH: EVQLVESGGGLVQPGGSLRLSCTASGFSLSNYVMNWVRQAPGKGLEWVGIIDSSGSTYYASWAKGRFTISRDTSKNTVYLQMNSLRAEDTAVYFCARGLYLWGQGTLVTVSS
VL: EIVMTQSPSTLSASVGDRVIITCQSSQSVYNNNLHAWYQQKPGKAPKLLIYYTSNLASGVPSRFSGSGSGAEFTLTISSLQPDDFATYYCQGGYNGNIYAFGQGTKLTVL
notes: IgG
B14: MYT10926 (antibody, V domains shown)
VH: EVQLVESGGGLVQPGGSLRLSCTASGFSLSNYVMNWVRQAPGKGLEWVGIIDSSGSTYYASWAKGRFTISRDTSKNTVYLQMNSLRAEDTAVYFCARGLYLWGQGTLVTVSS
VL: EIVMTQSPSTLSASVGDRVIITCQSSQSVYHNNLLAWYQQKPGKAPKLLIYYTSNLASGVPSRFSGSGSGAEFTLTISSLQPDDFATYYCQGGYNGNIYAFGQGTKLTVL
notes: IgG
B15: MYT10897 (antibody, V domains shown)
VH: EVQLVESGGGLVQPGGSLRLSCTASGFSLSNYVMNWVRQAPGKGLEWVGIIHSSGSTYYASWAKGRFTISRDTSKNTVYLQMNSLRAEDTAVYFCARGLYLWGQGTLVTVSS
VL: EIVMTQSPSTLSASVGDRVIITCQSSQSVYNNNLLAWYQQKPGKAPKLLIYYTSNLASGVPSRFSGSGSGAEFTLTISSLQPDDFATYYCQGGYNGNIYAFGQGTKLTVL
notes: IgG
B16: MYT10937 (antibody, V domains shown)
VH: EVQLVESGGGLVQPGGSLRLSCTASGFSLSNYVMNWVRQAPGKGLEWVGIIDSSGSTYYASWAKGRFTISRDTSKNTVYLQMNSLRAEDTAVYFCARGLYLWGQGTLVTVSS
VL: EIVMTQSPSTLSASVGDRVIITCQSSQSVYNNNLLAWYQQKPGKAPKLLIYYTSNLHSGVPSRFSGSGSGAEFTLTISSLQPDDFATYYCQGGYNGNIYAFGQGTKLTVL
notes: IgG
B17: MYT10928 (antibody, V domains shown)
VH: EVQLVESGGGLVQPGGSLRLSCTASGFSLSNYVMNWVRQAPGKGLEWVGIIDSSGSTYYASWAKGRFTISRDTSKNTVYLQMNSLRAEDTAVYFCARGLYLWGQGTLVTVSS
VL: EIVMTQSPSTLSASVGDRVIITCQSSQSVYNNHLLAWYQQKPGKAPKLLIYYTSNLASGVPSRFSGSGSGAEFTLTISSLQPDDFATYYCQGGYNGNIYAFGQGTKLTVL
notes: IgG
B18: MYT10895 (antibody, V domains shown)
VH: EVQLVESGGGLVQPGGSLRLSCTASGFSLSNYVMNWVRQAPGKGLEWVGHIDSSGSTYYASWAKGRFTISRDTSKNTVYLQMNSLRAEDTAVYFCARGLYLWGQGTLVTVSS
VL: EIVMTQSPSTLSASVGDRVIITCQSSQSVYNNNLLAWYQQKPGKAPKLLIYYTSNLASGVPSRFSGSGSGAEFTLTISSLQPDDFATYYCQGGYNGNIYAFGQGTKLTVL
notes: IgG
B19: MYT10911 (antibody, V domains shown)
VH: EVQLVESGGGLVQPGGSLRLSCTASGFSLSNYVMNWVRQAPGKGLEWVGIIDSSGSTYYASWAKGRFTISRDTSKNTVYLQMNSLRAEDTAVYFCHRGLYLWGQGTLVTVSS
VL: EIVMTQSPSTLSASVGDRVIITCQSSQSVYNNNLLAWYQQKPGKAPKLLIYYTSNLASGVPSRFSGSGSGAEFTLTISSLQPDDFATYYCQGGYNGNIYAFGQGTKLTVL
notes: IgG
B20: MYT10925 (antibody, V domains shown)
VH: EVQLVESGGGLVQPGGSLRLSCTASGFSLSNYVMNWVRQAPGKGLEWVGIIDSSGSTYYASWAKGRFTISRDTSKNTVYLQMNSLRAEDTAVYFCARGLYLWGQGTLVTVSS
VL: EIVMTQSPSTLSASVGDRVIITCQSSQSVHNNNLLAWYQQKPGKAPKLLIYYTSNLASGVPSRFSGSGSGAEFTLTISSLQPDDFATYYCQGGYNGNIYAFGQGTKLTVL
notes: IgG

Each binder was assayed against T1, Human PTK7/CCK4 Protein, His Tag, Acro … (assay: BLI, antibody on anti-human Fc sensor, 50 nM PTK7).
B1: binds.
B2: binds.
B3: binds.
B4: binds.
B5: binds.
B6: binds.
B7: binds.
B8: binds.
B9: binds.
B10: binds.
B11: binds.
B12: binds.
B13: binds.
B14: binds.
B15: binds.
B16: binds.
B17: binds.
B18: binds.
B19: binds.
B20: binds.
